Assay [1] addresses T1, biotinylated recombinant mouse IL-12Rβ2 (produced in-house) (mouse, UniProt P97378 24-637, random biotinylated).
T1 construct: also called mIL-12RB2; mIL12RB2
T1 sequence: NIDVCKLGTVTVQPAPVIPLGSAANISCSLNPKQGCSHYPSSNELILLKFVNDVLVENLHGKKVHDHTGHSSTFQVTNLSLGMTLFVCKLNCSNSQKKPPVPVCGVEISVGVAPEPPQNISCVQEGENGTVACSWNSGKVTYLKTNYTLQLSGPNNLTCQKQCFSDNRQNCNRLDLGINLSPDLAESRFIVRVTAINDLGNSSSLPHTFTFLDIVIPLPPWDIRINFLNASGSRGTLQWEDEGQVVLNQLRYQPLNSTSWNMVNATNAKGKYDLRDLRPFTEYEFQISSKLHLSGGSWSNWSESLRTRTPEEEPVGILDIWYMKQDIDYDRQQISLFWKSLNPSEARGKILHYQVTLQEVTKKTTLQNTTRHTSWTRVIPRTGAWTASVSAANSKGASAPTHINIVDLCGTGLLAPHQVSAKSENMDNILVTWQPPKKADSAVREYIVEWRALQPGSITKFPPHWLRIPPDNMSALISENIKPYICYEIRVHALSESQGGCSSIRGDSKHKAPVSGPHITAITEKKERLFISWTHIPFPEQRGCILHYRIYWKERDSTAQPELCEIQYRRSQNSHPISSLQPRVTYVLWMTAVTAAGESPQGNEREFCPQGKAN
Kind of assay: ELISA, P.E. VHH on biotinylated mIL-12RB2.

For assay [2], the target named is T2, biotinylated recombinant human IL-12Rβ2 (produced in-house) (human, UniProt Q99665 24-622, random biotinylated).
T2 construct: also called hIL-12RB2; hIL12RB2
T2 sequence: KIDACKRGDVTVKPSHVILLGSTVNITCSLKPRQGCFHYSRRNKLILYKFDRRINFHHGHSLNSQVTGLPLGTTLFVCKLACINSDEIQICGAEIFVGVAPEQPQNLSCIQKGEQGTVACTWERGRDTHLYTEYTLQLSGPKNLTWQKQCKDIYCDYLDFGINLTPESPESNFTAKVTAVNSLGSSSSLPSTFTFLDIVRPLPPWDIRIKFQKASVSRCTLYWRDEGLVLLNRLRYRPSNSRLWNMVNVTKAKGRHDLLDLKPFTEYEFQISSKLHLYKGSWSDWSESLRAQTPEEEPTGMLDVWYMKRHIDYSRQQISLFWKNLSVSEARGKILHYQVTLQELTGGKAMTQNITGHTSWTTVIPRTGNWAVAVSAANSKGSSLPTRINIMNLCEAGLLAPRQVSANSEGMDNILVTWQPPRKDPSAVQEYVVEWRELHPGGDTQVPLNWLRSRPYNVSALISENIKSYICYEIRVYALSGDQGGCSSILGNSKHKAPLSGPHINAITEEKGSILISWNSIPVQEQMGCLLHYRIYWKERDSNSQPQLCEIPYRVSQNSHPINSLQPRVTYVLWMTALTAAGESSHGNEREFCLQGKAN
Description: BLI (Octet), P.E. VHH on immobilised biotinylated hIL-12RB2.

Assay [3] addresses T2, biotinylated recombinant human IL-12Rβ2 …. Description: BLI (Octet), P.E. VHH on immobilised biotinylated hIL-12RB2, 1:1 model. A general note: In BLI a coated tip is dipped into the sample, and binding shifts an interference pattern.
Assay [4] shares this target. Description: ELISA, P.E. VHH on biotinylated hIL-12RB2, signal ratio to control well. On the technique in general: ELISA stands for enzyme-linked immunosorbent assay.
The target of assay [5] is T1, biotinylated recombinant mouse IL-12Rβ2 …. Kind of assay: ELISA, P.E. VHH on biotinylated mIL-12RB2, signal ratio to control well.
Assay [6] concerns the target T3, human IL-12Rβ2 expressed on cells (human, UniProt Q99665 24-862).
T3 construct: HEK293T cells transiently transfected with a human IL-12Rβ2 plasmid (Genscript OHu21785); also called hIL-12RB2
T3 sequence: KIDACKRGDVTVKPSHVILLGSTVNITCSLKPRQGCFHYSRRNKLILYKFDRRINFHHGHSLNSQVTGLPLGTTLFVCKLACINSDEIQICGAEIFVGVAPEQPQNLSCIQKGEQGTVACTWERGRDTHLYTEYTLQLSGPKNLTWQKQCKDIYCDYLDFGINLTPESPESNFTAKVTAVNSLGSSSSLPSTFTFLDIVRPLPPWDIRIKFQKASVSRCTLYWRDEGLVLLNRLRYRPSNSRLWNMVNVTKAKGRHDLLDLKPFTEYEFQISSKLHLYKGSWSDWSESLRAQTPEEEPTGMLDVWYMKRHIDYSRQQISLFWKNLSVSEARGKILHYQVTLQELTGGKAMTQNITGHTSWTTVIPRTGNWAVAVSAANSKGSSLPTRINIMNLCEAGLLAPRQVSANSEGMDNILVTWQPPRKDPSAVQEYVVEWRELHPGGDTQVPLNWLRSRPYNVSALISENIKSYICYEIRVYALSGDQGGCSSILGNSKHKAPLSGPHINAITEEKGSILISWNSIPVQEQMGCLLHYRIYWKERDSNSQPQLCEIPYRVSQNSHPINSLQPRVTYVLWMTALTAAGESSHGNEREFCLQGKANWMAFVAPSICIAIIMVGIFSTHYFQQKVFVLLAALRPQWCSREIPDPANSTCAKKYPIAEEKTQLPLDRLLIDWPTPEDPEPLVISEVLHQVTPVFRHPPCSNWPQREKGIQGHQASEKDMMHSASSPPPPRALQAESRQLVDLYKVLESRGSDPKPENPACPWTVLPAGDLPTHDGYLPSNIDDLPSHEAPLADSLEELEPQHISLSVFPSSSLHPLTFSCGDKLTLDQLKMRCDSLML
Description: flow cytometry, P.E. VHH on HEK293T cells transiently expressing hIL-12RB2.

Here are results for five molecules from patent publication US20260209362A1 (VIB VZW, published 2026).

What is called koff is the first-order rate constant of dissociation.

B1: anti-IL-12Rβ2 VHH clone 3CRHS54 (VHH, not shown: small tags and cut ends)
VHH: QVQLQESGGGLVQPGGSLRLSCTASGSIVSIYNMDWYRQAPGNEREWVASITSSGDPYYDGSAKGRFTISRDNAKMTVYLQMNSLEPEDTAVYFCKVPTEKGNYWGQGTQVTVSS
notes: tested as periplasmic extract; also called 3CRHSS4
Regarding B1, in assay [1], the binding result is listed as “no binding”. The Response in assay [2] was determined as 0.203. Moreover, the koff in assay [3] is 0.00272 s⁻¹. Also, in assay [4], the “ELISA hIL12RB2/control” value turned out to be 7.85. Moreover, the “ELISA mIL12RB2/control” value in assay [5] stood at 1.26. In assay [6], this molecule had a dMFI of 870.

B2: anti-IL-12Rβ2 VHH clone 3CRHS9 (VHH, not shown: small tags and cut ends)
VHH: QVQLQESGGGLVQPGGSLRLSCTASGSIVSIYNMDWYRQAPGNEREWVASITSSGDPYYDGSAKGRFTISRDNAKMTVYLQMNSLKPEDTAVYYCKVPTEKGNYWGQGTQVTVSS
notes: tested as periplasmic extract
On to B2, for which the binding result in assay [1] is “no binding”. Also, the Response in assay [2] was found to be 0.222. Moreover, in assay [3], the off-rate constant (koff) amounted to 0.0034 s⁻¹. The “ELISA hIL12RB2/control” value in assay [4] is 5.08. The “ELISA mIL12RB2/control” value in assay [5] came to 1.09. In assay [6], this molecule returned a dMFI of 941.

B3: anti-IL-12Rβ2 VHH clone 3CRHS128 (VHH, not shown: small tags and cut ends)
VHH: QVQLQESGGGLVQPGGSLRLSCAASGFTFSTSGMHWFRQAPGKGLEWVSSIGATVDNSYYASSVKGRFTISRDNAKNTLYLLMNSLKSEDTAVYYCSKDPTGSSRGQGTQVTVSS
notes: tested as periplasmic extract; also called SCRHS128
Turning to B3, in assay [1], the binding result is on record as “no binding”. Also, the Response in assay [2] amounted to 0.294. Moreover, the koff in assay [3] was determined as 0.00274 s⁻¹. Further, in assay [4], the “ELISA hIL12RB2/control” value is 3.65. Further, the “ELISA mIL12RB2/control” value in assay [5] stood at 0.98. The molecule further returned a dMFI in assay [6] of 1380.

B4: anti-IL-12Rβ2 VHH clone 3CRH5 (VHH, not shown: small tags and cut ends)
VHH: QVQLQESGGGLVQAGGSLVLSCAASGSAALIFLMSWYRQAPGKQRELVAEVSRGGSTTYADSVEGRFTISRDNAKNIVDLQMNSLKPEDTAVYYCKADQNYGDSLRSSWGQGTQVTVSS
notes: tested as periplasmic extract; also called 3CRHS
Take B4: the binding result in assay [1] is “no binding”. The Response in assay [2] was found to be 0.491. The koff in assay [3] was determined as 0.00337 s⁻¹. In addition, the “ELISA hIL12RB2/control” value in assay [4] was found to be 8.64. For the same molecule, the “ELISA mIL12RB2/control” value in assay [5] was 0.81. In assay [6], this molecule showed a dMFI of 735.

B5: anti-IL-12Rβ2 VHH clone 3CAHS124 (VHH, not shown: small tags and cut ends)
VHH: QVQLQESGGGLVQPGGSLRLSCAASGRTINAYIMGWFRQAPGKEREFVAAVSGSGGSTYYADSVKGRFTISRDNAKNTVNLQMDNLRSEDTDVYYCAATYESVYLQNPGQYDYWGQGTQVTVSS
notes: tested as periplasmic extract
With B5, the binding result in assay [1] is “no binding”. The Response in assay [2] worked out at 0.293. Besides, in assay [3], the koff was 0.00324 s⁻¹. Moreover, the “ELISA hIL12RB2/control” value in assay [4] was 5.67. Further, the “ELISA mIL12RB2/control” value in assay [5] stood at 1. Also, in assay [6], the dMFI was found to be 1100.
